{
  "source": "paper PMC10954691",
  "about": "“A structure-based designed small molecule depletes hRpn13^Pru and a select group of KEN box proteins” (Nature Communications, 2024)",
  "target": "T1, hRpn13 Pru (1-150) (human, UniProt Q16186 1-150)",
  "T1 construct": "hRpn13 (proteasome subunit, gene ADRM1), Pru domain, residues 1-150; printed MW 17017.3 g/mol; also called hRpn13 Pru domain",
  "T1 sequence (Q16186 1-150)": "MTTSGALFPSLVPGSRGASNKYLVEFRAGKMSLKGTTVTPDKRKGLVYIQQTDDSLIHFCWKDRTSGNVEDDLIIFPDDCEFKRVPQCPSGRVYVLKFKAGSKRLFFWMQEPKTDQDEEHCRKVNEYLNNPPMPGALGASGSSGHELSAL",
  "assay": "19F NMR of the competing small molecule XL44; 25 or 50 uM hRpn2 (940-953) added to preincubated 50 uM XL44 and equimolar hRpn13 Pru; NMR buffer (20 mM sodium phosphate, 50 mM NaCl, 2 mM DTT, 10% DMSO-d6, pH 6.5), 10 °C",
  "conditions": "both partners purified",
  "data": [
    {"binder": "QEPEPPEPFEYIDD (peptide, UniProt Q99460 940-953, looked up, hRpn2 (proteasome regulatory particle subunit), extreme C-terminus, residues 940-953; also called hRpn2 peptide; not shown: GST, N-terminal, cleaved)", "note": "[hRpn2 (940-953)]", "values": [
      {"measurement": "binding result", "result": "binds"}
    ]}
  ]
}
